Source: the supplement of paper PMC10567573

B1: NET1 (parent)
chain: IKRTIRVLDVNNQSFREQEEPSNK

Variants of: B1
Test: protein stability index of a GFP-peptide fusion (GPS, HEK-293T) (PSI 1-6); higher = more stable
Conditions: c terminus: a fixed tail appended
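Further: lentivirally expressed fusions sorted by FACS into six bins by GFP to DsRed ratio, PSI derived from sequencing read proportions per bin multiplied by bin number.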

Compared with IKRTIRVLDVNNQSFRKQEEPSNK, IKRTIRVLDVNNQSFRMQEEPSNK is lower in protein stability index: 3.11 for the first, 2.92 for the second.

Going from IKRTIRVLDVNNQSFRAQEEPSNK to IKRTIRVLDVNNQSFRDQEEPSNK, the protein stability index falls from 3.6 to 3.25.

First: IKRTIRVLDVNNQSFRGQEEPSNK
Second: IKRTIRVLDVNNQSFRHQEEPSNK
The protein stability index of the first is lower: 3.29 for the first, 3.59 for the second.

Going from IKRTIRVLDVNNQSFRLQEEPSNK to IKRTIRVLDVNNQSFRCQEEPSNK, the protein stability index rises from 3.15 to 3.27.

First: IKRTIRVLDVNNQSFRFQEEPSNK
Second: IKRTIRVLDVNNQSFRIQEEPSNK
The protein stability index of the first is lower: 2.8 for the first, 3.22 for the second.

Going from IKRTIRVLDVNNQSIREQEEPSNK to IKRTIRVLDVNNQSYREQEEPSNK, the protein stability index falls from 3.96 to 3.79.

Going from IKRTIRVLDVNNQSCREQEEPSNK to IKRTIRVLDVNNQSDREQEEPSNK, the protein stability index rises from 4.18 to 4.86.

Going from IKRTIRVLDVNNQSSREQEEPSNK to IKRTIRVLDVNNQSEREQEEPSNK, the protein stability index rises from 4.3 to 4.79.

First: IKRTIRVLDVNNQSNREQEEPSNK
Second: IKRTIRVLDVNNQSRREQEEPSNK
The protein stability index of the first is lower: 3.82 for the first, 4.79 for the second.

Compared with IKRTIRVLDVNNQSMREQEEPSNK, IKRTIRVLDVNNQSKREQEEPSNK is higher in protein stability index: 3.98 for the first, 4.02 for the second.

Compared with IKRTIRVLDVNNQSAREQEEPSNK, IKRTIRVLDVNNQSWREQEEPSNK is lower in protein stability index: 4.27 for the first, 3.6 for the second.

First: IKRTIRVLDVNNQSPREQEEPSNK
Second: IKRTIRVLDVNNQSVREQEEPSNK
The protein stability index of the first is higher: 4.67 for the first, 3.79 for the second.

Compared with IKRTIRVLDVNNQSQREQEEPSNK, IKRTIRVLDVNNQSHREQEEPSNK is higher in protein stability index: 4.29 for the first, 4.44 for the second.

Going from IKRTIRVLDVNNQSTREQEEPSNK to IKRTIRVLDVNNQSLREQEEPSNK, the protein stability index falls from 4.09 to 3.4.

First: IKRTIRLLDVNNQSFREQEEPSNK
Second: IKRTIRPLDVNNQSFREQEEPSNK
The protein stability index of the first is lower: 3.46 for the first, 4.22 for the second.

Going from IKRTIRWLDVNNQSFREQEEPSNK to IKRTIRRLDVNNQSFREQEEPSNK, the protein stability index rises from 2.41 to 3.71.

Compared with IKRTIRTLDVNNQSFREQEEPSNK, IKRTIRQLDVNNQSFREQEEPSNK is higher in protein stability index: 4.21 for the first, 5.07 for the second.

First: IKRTIRNLDVNNQSFREQEEPSNK
Second: IKRTIRSLDVNNQSFREQEEPSNK
The protein stability index of the first is higher: 4.5 for the first, 4.28 for the second.

First: IKRTIRMLDVNNQSFREQEEPSNK
Second: IKRTIRYLDVNNQSFREQEEPSNK
The protein stability index of the first is higher: 3.27 for the first, 3.04 for the second.

First: IKRTIRVLDVNNQKFREQEEPSNK
Second: IKRTIRVLDVNNQEFREQEEPSNK
The protein stability index of the first is lower: 3.24 for the first, 3.79 for the second.

Going from IKRTIRVLDVNNQGFREQEEPSNK to IKRTIRVLDVNNQCFREQEEPSNK, the protein stability index falls from 4.17 to 3.27.

IKRTIRVLDVNNQNFREQEEPSNK and IKRTIRVLDVNNQVFREQEEPSNK are the same in protein stability index: 3.47 for the first, 3.47 for the second.

Going from IKRTIRVLDVNNQDFREQEEPSNK to IKRTIRVLDVNNQHFREQEEPSNK, the protein stability index falls from 3.68 to 3.09.

Compared with IKRTIRVLDVNNQFFREQEEPSNK, IKRTIRVLDVNNQLFREQEEPSNK is higher in protein stability index: 2.56 for the first, 2.62 for the second.

Compared with IKRTIRVLDVNNQWFREQEEPSNK, IKRTIRVLDVNNQQFREQEEPSNK is higher in protein stability index: 3.01 for the first, 3.91 for the second.

Going from IKRTIRVLDVNNQPFREQEEPSNK to IKRTIRVLDVNNQRFREQEEPSNK, the protein stability index rises from 2.9 to 3.78.

First: IKRTIRVLDVNNQAFREQEEPSNK
Second: IKRTIRVLDVNNQTFREQEEPSNK
The protein stability index of the first is lower: 3.02 for the first, 3.52 for the second.

Compared with IKRTIRVLDVNNQYFREQEEPSNK, IKRTIRVLDVNNQIFREQEEPSNK is higher in protein stability index: 2.6 for the first, 3.64 for the second.

Going from IKRTIRVLDVNNQMFREQEEPSNK to IKRTIRVLDVPNQSFREQEEPSNK, the protein stability index rises from 3.21 to 4.16.

First: IKRTIRVLDVANQSFREQEEPSNK
Second: IKRTIRVLDVSNQSFREQEEPSNK
The protein stability index of the first is higher: 4.48 for the first, 4.22 for the second.

First: IKRTIRVLDVVNQSFREQEEPSNK
Second: IKRTIRVLDVYNQSFREQEEPSNK
The protein stability index of the first is lower: 3.56 for the first, 4.06 for the second.

Going from IKRTIRVLDVCNQSFREQEEPSNK to IKRTIRVLDVDNQSFREQEEPSNK, the protein stability index rises from 3.09 to 4.47.

Going from IKRTIRVLDVMNQSFREQEEPSNK to IKRTIRVLDVRNQSFREQEEPSNK, the protein stability index rises from 2.83 to 4.41.

Compared with IKRTIRVLDVINQSFREQEEPSNK, IKRTIRVLDVLNQSFREQEEPSNK is higher in protein stability index: 1.85 for the first, 2.26 for the second.

Going from IKRTIRVLDVWNQSFREQEEPSNK to IKRTIRVLDVHNQSFREQEEPSNK, the protein stability index rises from 2.65 to 3.62.

First: IKRTIRVLDVTNQSFREQEEPSNK
Second: IKRTIRVLDVFNQSFREQEEPSNK
The protein stability index of the first is higher: 3.41 for the first, 2.61 for the second.

First: IKRTIRVLDVQNQSFREQEEPSNK
Second: IKRTIRVLDVENQSFREQEEPSNK
The protein stability index of the first is lower: 4.34 for the first, 4.51 for the second.

First: IKRTIRVLDVGNQSFREQEEPSNK
Second: IKRTIRVLDVKNQSFREQEEPSNK
The protein stability index of the first is lower: 2.99 for the first, 4.44 for the second.

First: IKRTIRVLDNNNQSFREQEEPSNK
Second: IKRTIRVLDRNNQSFREQEEPSNK
The protein stability index of the first is higher: 4.46 for the first, 4.04 for the second.

Going from IKRTIRVLDQNNQSFREQEEPSNK to IKRTIRVLDANNQSFREQEEPSNK, the protein stability index falls from 4.03 to 3.38.

Going from IKRTIRVLDMNNQSFREQEEPSNK to IKRTIRVLDKNNQSFREQEEPSNK, the protein stability index rises from 4 to 4.35.

Compared with IKRTIRVLDHNNQSFREQEEPSNK, IKRTIRVLDPNNQSFREQEEPSNK is lower in protein stability index: 4.23 for the first, 3.21 for the second.

Going from IKRTIRVLDINNQSFREQEEPSNK to IKRTIRVLDTNNQSFREQEEPSNK, the protein stability index rises from 3.87 to 4.23.

Going from IKRTIRVLDDNNQSFREQEEPSNK to IKRTIRVLDYNNQSFREQEEPSNK, the protein stability index falls from 4.83 to 4.06.

Compared with IKRTIRVLDENNQSFREQEEPSNK, IKRTIRVLDLNNQSFREQEEPSNK is lower in protein stability index: 4.79 for the first, 3.85 for the second.

First: IKRTIRVLDGNNQSFREQEEPSNK
Second: IKRTIRVLDCNNQSFREQEEPSNK
The protein stability index of the first is higher: 4.22 for the first, 3.82 for the second.

First: IKRTIRVLDSNNQSFREQEEPSNK
Second: IKRTIRVLDFNNQSFREQEEPSNK
The protein stability index of the first is higher: 3.85 for the first, 3.19 for the second.
